Measured values: US20150267232A1, “IN VIVO AND IN VITRO CARBENE INSERTION AND NITRENE TRANSFER REACTIONS CATALYZED BY HEME ENZYMES” (California Institute of Technology, priority 2012, published 2015)
Where “and” joins values, the source holds several entries; their conditions need not be identical. Equal entries are not always repeated.

What was measured:
[1] = Small-scale anaerobic C—H amination with purified enzymes, azide 1; type: biochemical; conditions: for Product (3) / TTN on substrate 1: 1% loading of hemin; for % ee: 0.1 mol % catalyst loading, (S−R)/(S+R)
How it was run: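 Purified P450 or P411 enzymes (0.1-0.5% catalyst loading) in 400 μL reactions of 0.1 M potassium phosphate pH 8.0 with a catalase/glucose oxidase oxygen-depletion system were made anaerobic under argon, given 10 μL of 80 mM arylsulfonyl azide in DMSO, and stirred 24 h at room temperature. After HCl quench and acetonitrile addition, sultam was quantified by HPLC at 220 nm against an internal standard; enantioselectivity was measured by chiral HPLC.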

[2] = Small-scale anaerobic C—H amination with purified enzymes, azide 6; type: biochemical
Procedure: Hemin also was capable of catalyzing this reaction when reduced with dithionite (Table 13).
Small scale reactions containing either 0.1% loading of ABC-CIS or ABC-T268A or 1% loading of hemin with azides 1, 4, or 6 according to standard procedures.
Small-scale reactions (400 μL) were conducted in 2 mL crimp vials (Agilent Technologies, San Diego, Calif.) containing buffer (0.1 M potassium phosphate pH 8.0), enzyme (0.1-0.5% catalyst loading) and oxygen depletion system (10× stock solution containing 14,000 U/mL catalase, 1,000 U/mL glucose oxidase dissolved in 0.1 M KPi pH 8.0). Enzyme (P450 or P411) solution and oxygen depletion mixture were added to the vial with a small stir bar before crimp-sealing. Portions of phosphate buffer (190 μL, 0.1 M, pH=8.0), glucose (40 μL, 250 mM) and NADPH (40 μL, 20 mM), or multiples thereof, were combined in a larger crimp sealed vial and degassed by sparging with argon for at least 5 min. In the meantime, the headspace of the sealed 2 mL reaction vial with the P450 solution was made anaerobic by flushing argon over the protein solution (with no bubbling). The buffer/reductant/glucose solution (270 μL) was syringed into the reaction vial with continuous argon purge of the vial headspace. An arylsulfonyl azide solution in DMSO (10 μL, 80 mM) was added to the reaction vial via a glass syringe, and the reaction was left stirring for 24 h at room temperature under positive argon pressure. Final concentrations of the reagents were typically: 2 mM arylsulfonyl azide, 2 mM NADPH, 25 mM glucose, 2 or 10 μM P450. Reactions were quenched by adding 30 μL 3 M HCl under argon. To the vials were then added acetonitrile (430 uL) and internal standard (o-toluenesulfonamide 10 mM in 50% acetonitrile 50% water, 1 mM final concentration). […] A portion (20 μL) of the supernatant was then analyzed by HPLC. […] Sultam formation was quantified comparison of integrated peak areas of internal standard and sultam at 220 nm to a calibration curve made using synthetically produced sultam and internal standard.

[3] = 0.1 mol % catalyst loading (2 μM), 2 mM azide 1, 2 mM NADPH, benzosultam 3
[4] = catalyst loading 0.5 mol %, NADPH, anaerobic

hemin
Product (3) / TTN on substrate 1 [1]: 3.1 | Product (3) / TTN on substrate 1 ([1]; listed as hemin): 3 | % activity ([1]; CS-P450 + Hemin): 0% | TTN ([1]; CS-P450 + Hemin (2 μM hemin)): 0 | stereochemical outcome of product 3 ([1]; reaction with hemin): racemic | Product (7) / TTN on substrate 6 ([2]; 1% loading of hemin): 55

B1: P450BM3: wild-type cytochrome P450BM3 from Bacillus megaterium (SEQ ID NO: 1) (protein, listed as Bacillus megaterium)
chain: TIKEMPQPKTFGELKNLPLLNTDKPVQALMKIADELGEIFKFEAPGRVTRYLSSQRLIKEACDESRFDKNLSQALKFVRDFAGDGLFTSWTHEKNWKKAHNILLPSFSQQAMKGYHAMMVDIAVQLVQKWERLNADEHIEVPEDMTRLTLDTIGLCGFNYRFNSFYRDQPHPFITSMVRALDEAMNKLQRANPDDPAYDENKRQFQEDIKVMNDLVDKIIADRKASGEQSDDLLTHMLNGKDPETGEPLDDENIRYQIITFLIAGHETTSGLLSFALYFLVKNPHVLQKAAEEAARVLVDPVPSYKQVKQLKYVGMVLNEALRLWPTAPAFSLYAKEDTVLGGEYPLEKGDELMVLIPQLHRDKTIWGDDVEEFRPERFENPSAIPQHAFKPFGNGQRACIGQQFALHEATLVLGMMLKHFDFEDHTNYELDIKETLTLKPEGFVVKAKSKKIPLGGIPSPSTEQSAKKVRKKAENAHNTPLLVLYGSNMGTAEGTARDLADIAMSKGFAPQVATLDSHAGNLPREGAVLIVTASYNGHPPDNAKQFVDWLDQASADEVKGVRYSVFGCGDKNWATTYQKVPAFIDETLAAKGAENIADRGEADASDDFEGTYEEWREHMWSDVAAYFNLDIENSEDNKSTLSLQFVDSAADMPLAKMHGAFSTNVVASKELQQPGSARSTRHLEIELPKEASYQEGDHLGVIPRNYEGIVNRVTARFGLDASQQIRLEAEEEKLAHLPLAKTVSVEELLQYVELQDPVTRTQLRAMAAKTVCPPHKVELEALLEKQAYKEQVLAKRLTMLELLEKYPACEMKFSEFIALLPSIRPRYYSISSSPRVDEKQASITVSVVSGEAWSGYGEYKGIASNYLAELQEGDTITCFISTPQSEFTLPKDPETPLIMVGPGTGVAPFRGFVQARKQLKEQGQSLGEAHLYFGCRSPHEDYLYQEELENAQSEGIITLHTAFSRMPNQPKTYVQHVMEQDGKKLIELLDQGAHFYICGDGSQMAPAVEATLMKSYADVHQVSEADARLWLQQLEEKGRYAKDVWAG
modifications: cytochrome P450NADPH-P-450 reductase precursor, cytochrome P450 (BM3), CYP102A1
TTN [1, 3]: 2.1 | TTN (C—H amination product 3) [1, 4]: 4

B2: BM3-T268A: P450BM3 variant: T268A (protein, listed as Bacillus megaterium)
chain: TIKEMPQPKTFGELKNLPLLNTDKPVQALMKIADELGEIFKFEAPGRVTRYLSSQRLIKEACDESRFDKNLSQALKFVRDFAGDGLFTSWTHEKNWKKAHNILLPSFSQQAMKGYHAMMVDIAVQLVQKWERLNADEHIEVPEDMTRLTLDTIGLCGFNYRFNSFYRDQPHPFITSMVRALDEAMNKLQRANPDDPAYDENKRQFQEDIKVMNDLVDKIIADRKASGEQSDDLLTHMLNGKDPETGEPLDDENIRYQIITFLIAGHEATSGLLSFALYFLVKNPHVLQKAAEEAARVLVDPVPSYKQVKQLKYVGMVLNEALRLWPTAPAFSLYAKEDTVLGGEYPLEKGDELMVLIPQLHRDKTIWGDDVEEFRPERFENPSAIPQHAFKPFGNGQRACIGQQFALHEATLVLGMMLKHFDFEDHTNYELDIKETLTLKPEGFVVKAKSKKIPLGGIPSPSTEQSAKKVRKKAENAHNTPLLVLYGSNMGTAEGTARDLADIAMSKGFAPQVATLDSHAGNLPREGAVLIVTASYNGHPPDNAKQFVDWLDQASADEVKGVRYSVFGCGDKNWATTYQKVPAFIDETLAAKGAENIADRGEADASDDFEGTYEEWREHMWSDVAAYFNLDIENSEDNKSTLSLQFVDSAADMPLAKMHGAFSTNVVASKELQQPGSARSTRHLEIELPKEASYQEGDHLGVIPRNYEGIVNRVTARFGLDASQQIRLEAEEEKLAHLPLAKTVSVEELLQYVELQDPVTRTQLRAMAAKTVCPPHKVELEALLEKQAYKEQVLAKRLTMLELLEKYPACEMKFSEFIALLPSIRPRYYSISSSPRVDEKQASITVSVVSGEAWSGYGEYKGIASNYLAELQEGDTITCFISTPQSEFTLPKDPETPLIMVGPGTGVAPFRGFVQARKQLKEQGQSLGEAHLYFGCRSPHEDYLYQEELENAQSEGIITLHTAFSRMPNQPKTYVQHVMEQDGKKLIELLDQGAHFYICGDGSQMAPAVEATLMKSYADVHQVSEADARLWLQQLEEKGRYAKDVWAG
modifications: cytochrome P450NADPH-P-450 reductase precursor, cytochrome P450 (BM3), CYP102A1
TTN [1, 3]: 15 | % ee ([1]; benzosultam 3): 36% | activity with reductant NADPH ([1]; NADPH (2 mM), 0.1 mol % loading, azide 1): 22 | TTN (C—H amination product 3) [1, 4]: 28 | activity with reductant Dithionite ([1]; dithionite (2 mM), 0.1 mol % loading, azide 1): 25

B3: ABC-CIS: BM3-CIS + C400S (protein, listed as Bacillus megaterium)
chain: TIKEMPQPKTFGELKNLPLLNTDKPVQALMKIADELGEIFKFEAPGRVTRYLSSQRLIKEACDESRFDKNLSQALKFARDFAGDGLVTSWTHEKNWKKAHNILLPSFSQQAMKGYHAMMVDIAVQLVQKWERLNADEHIEVSEDMTRLTLDTIGLCGFNYRFNSFYRDQPHPFIISMVRALDEVMNKLQRANPDDPAYDENKRQFQEDIKVMNDLVDKIIADRKARGEQSDDLLTQMLNGKDPETGEPLDDGNIRYQIITFLIAGHEATSGLLSFALYFLVKNPHVLQKVAEEAARVLVDPVPSYKQVKQLKYVGMVLNEALRLWPTAPAFSLYAKEDTVLGGEYPLEKGDEVMVLIPQLHRDKTVWGDDVEEFRPERFENPSAIPQHAFKPFGNGQRASIGQQFALHEATLVLGMMLKHFDFEDHTNYELDIKETLTLKPKGFVVKAKSKKIPLGGIPSPSTEQSAKKVRKKAENAHNTPLLVLYGSNMGTAEGTARDLADIAMSKGFAPQVATLDSHAGNLPREGAVLIVTASYNGHPPDNAKQFVDWLDQASADEVKGVRYSVFGCGDKNWATTYQKVPAFIDETLAAKGAENIADRGEADASDDFEGTYEEWREHMWSDVAAYFNLDIENSEDNKSTLSLQFVDSAADMPLAKMHGAFSTNVVASKELQQPGSARSTRHLEIELPKEASYQEGDHLGVIPRNYEGIVNRVTARFGLDASQQIRLEAEEEKLAHLPLAKTVSVEELLQYVELQDPVTRTQLRAMAAKTVCPPHKVELEALLEKQAYKEQVLAKRLTMLELLEKYPACEMKFSEFIALLPSIRPRYYSISSSPRVDEKQASITVSVVSGEAWSGYGEYKGIASNYLAELQEGDTITCFISTPQSEFTLPKDPETPLIMVGPGTGVAPFRGFVQARKQLKEQGQSLGEAHLYFGCRSPHEDYLYQEELENAQSEGIITLHTAFSRMPNQPKTYVQHVMEQDGKKLIELLDQGAHFYICGDGSQMAPAVEATLMKSYADVHQVSEADARLWLQQLEEKGRYAKDVWAG
modifications: cytochrome P450NADPH-P-450 reductase precursor, cytochrome P450 (BM3), CYP102A1
notes: BM3-CIS + C400S
Product (3) ([1]; 0.1% loading, azide 1, TTN): 310 | TTN [1, 3]: 313 and 310 | % ee ([1]; benzosultam 3): 67% | TTN ([1]; [NADPH] 0 mM): 0 | [sultam] ([1]; [NADPH] 0 mM): 0 mM | TTN ([1]; [NADPH] 0.01 mM): 27 | [sultam] ([1]; [NADPH] 0.01 mM): 0.053 mM | TTN ([1]; [NADPH] 0.02 mM): 82 | [sultam] ([1]; [NADPH] 0.02 mM): 0.164 mM | TTN ([1]; [NADPH] 0.1 mM): 243 | [sultam] ([1]; [NADPH] 0.1 mM): 0.486 mM | TTN ([1]; [NADPH] 2 mM): 161 | [sultam] ([1]; [NADPH] 2 mM, 0.1 mol % loading): 0.322 mM | TTN (C—H amination product 3) [1, 4]: over 140 | yield of 3 by HPLC [1, 4]: 73% | Product (7) ([2]; 0.1% loading, azide 6): 36
